The data set in a line: label from the status in PepcDB records.
On to “MEWQAEQAYNHLPPLPLDSKLAELAETLPILKACIPARAALAELKQAGELLPNQGLLINLLPLLEAQGSSEIENIVTTTDKLFQYAQEDSQADPMTKEALRYRTALYQCFTQLSNRPLCVTTALEICSTIKSVQMDVRKVPGTSLTNQATGEVIYTPPAGESVIRDLLSNWEAFLHNQDDVDPLIKMAMAHYQFEAIHPFIDGNGRTGRVLNILYLIDQQLLSAPILYLSRYIVAHKQDYYRLLLNVTTQQEWQPWIIFILNAVEQTAKWTTHKIAAARELIAHTTEYVRQQLPKIYSHELVQVIFEQPYCRIQNLVESGLAKRQTASVYLKQLCDIGVLEEVQSGKEKLFVHPKFVTLMTKDSNQFSRYAL”, for which the protein production entry is “not failed”.

Take “MATGKISKRSIDALRPNASNQFLWDTDLKGFGAKITPAGAISYVLQFRMGGREASTRRYTIGAHGSPWTPTTARAEAERLLLLIGQGVDPVDADKQRRREAVDLAFANYAERFARSCKGDGWRRLVERAIRLYLTPVLGKKALPAINRTDVVSVFDNMPADQVANRRNVFAVLRRLFRWAVSRGDLDRSPMEGMETPPPVKARERWLSDDELRLIWNAAPECHRCFGPIVRLLIATGQRREEVSGMRWSELSRTDKLWTLPGDRTKNGEPNTIPLNDLAVAELDAAAGGDKWPRKGRVFATSTGAGFTGYAKGKDKLDRLIELAEGEPLPPWRLHDLRRTLATNFQRLGVRFEVTEAVLNHVGGSRSGVAGIYQRHDWKEEKRQALDDWNSHLEQILMRPSPGNRQAASQAAADLDK”: the protein production entry is “failed”.

For “MFANKILTEKDTDQIRFSILASGSSGNATLVETGDQKILIDCGLSGKKMEGLFAQVGRDMNDLDAILITHEHSDHIKGLGVLARKYKLPIYANAKTWKAMDNMIGEVSSDQKFQFDMETVKNFGSMQVESFGVSHDAIEPMFYIFHKGNKKFVMITDTGYVSDRMKGHIAGADAYLFESNHDVEMLRMGRYPWNVKRRILGDEGHVSNEDAAIAMSEVITDQTKRIYLGHLSKDNNMKELARMSVTQTLMAEGIDVGGKLEIFDTDPDNATSIFTILEHHHHHH”, the protein production result is “failed”.

In the case of “MDLIITFGLLTLVVLLEFIVVPAIILKRGTKFSTIYNYPIYIINSTEINAYSLTSVWGKFIVLTRGLVNGEDEEHIKAAIMHEVGHLKLNHHVKMSLYIISVIMVFTYLLGVNMLTLIPFALVALLVQRYLQRRLELGADRFALRFINKKMLEDLITKYDMKETTFLSTHPNIHVRLKNINE”, the protein production entry is given as “failed”.

Regarding “MRYGFMKVAAAVPFVKVADCEYNIERIDRMVHEADAKGVEIMTFPELSITGYSCGDLFFQPFLQERANEALCRLVEQTANTTVMVIVGMPLRVEEKLFNSAVVFQQGKILGAIPKTYLPNYREFQEARWFSPAHTLQYSTISIGQHSVPIGRNLIFKCGTVGVGIEICEDMWTPFTPGTRLCLYGAEVIFNLSSSNENAGKHSYLRSLISGLSSQGICAYVYASSGYGESSTDIVFTGKAFIAEAGEIVEEMERFRYEERMIISDIDVSRIQTERLINSSFKAAVTFHTHDEKFNQLPFKLRSRQESLPMTRRVDRNPFMPEDKDRKERSREMINIQVCGLMQRLLHMGAEHAVIGISGGLDSALALIVCAQAFDRLDLPRKNIIAVTMPGFGTSDRTYRNAFALMEAIGVTIKEIDIKEACLRHFEAIGHNPEVQDTTFENTQARERTQILMNLANIYNAPVIGTGDLSELALGWVTYNGDHMSMYAVNAGIAKTTVQILVDHIAHSGWLDEAASAVLLDIVRTPISPELKPVGQDGNISQKTEDLVGPYELHDFFIYHFLHNEYKPSKIYYLAGVAFKGIYTKAEIKKWMMVFFRRFFAQQYKRNCMPDGPKVSCISLSPRGAWRMASDASSALWLDEIAKFETDLEHHHHHH”, the protein production result is “failed”.

Consider “GSSGSSGWVAFDKQVLSFDAYLEEEVLDKSQTNYRIRYYKIYFYPEDDTIQVNEPEVKNSGLLQGTSIRRHRITLPPPDEDQFYTVYHFNVGTEVVFYGRTFKIYDCDAFTRNFLRKIGVKVNPPVQSGPSSG”, for which the protein production entry is given as “not failed”.

Turning to “MQAALEVTARYCGRELEQYGQCVAAKPESWQRDCHYLKMSIAQCTSSHPIIRQIRQACAQPFEAFEECLRQNEAAVGNCAEHMRRFLQCAEQVQPPRSPATVEAQPLPAS”, the protein production result is listed as “failed”.

Consider “MKVVVITGNLSRPSKTRAVADFMVDRVRASGNEASCWDLVDLHPHLGATVLPSSAAEIVKAALNDILASDVLVVGSPVYKASYTGLLKHLFDLVDMKALKGRYVIPFATGKASSHKPLVEASMEALFDFFEAQIHSRFIFALDEDFQNDALSENLRALVDRELDAARRAVSP”, for which the protein production result is “failed”.

As for “MDGYTGSHVVRCALRLAPLVFVRPGELRKAEWKDIDLDGGEWRYTVTKTNTPHIVPLSTQAVEILKELQALTGRSRFVFPGARTNGRPMSDNAILAALRRMGIDKEEMSGHGFRAMARTILDEVLGVRPDFIEHQLAHSVRDPLEHHHHHH”, the protein production result is listed as “failed”.

As for “MSGKTSITSRSDEFQRQIDHKEMPRDHQIERHTHIHTTRYRGGSLVEEVIEKLERFKVRTVNILVGGEDDEQKK”, the protein production result is “failed”.

For the sequence “MFQTQFSPINFRETKIIKANYKRFHEIRAKVQTETNDALNENEISAIKKSGFRGHVDISYKSSASFSPLPLQQYFTTMKKIVMRKLRSPVSHCMLVTKCQTTLQIGYIDWMESKSLSNIID”, the protein production entry is recorded as “failed”.

Regarding “MRLGTFHKKKRFYINKIKINFLSFLFRNKINNQITDPAQVKSCLIIHDNNKLGDLIVLSSIYRELYSKGVKITLLTNRKGGEFLSNNKNIFEFCIKESTGFLEMLTLCKHLRDLQFDIVLDPFETMPSFKHSLILSSLKDSYILGFDHWYKRYYSFYHPHDECLKEHMSTRAIEILKHIYGEGKFSTNYDLHLPVDVEDKIKEFIGDTRIVIINPLGAKKICRLTFEQIKVIYQEVKTHFENYRIIFTGLPQDLLTIPILEIETLPFDEFIYTVALTKYSDFVISVDTALVHIAAAYHKPTLAFYPNSRTPEYPSHLIWSPNHHKSIQIVSPTYTVKDIDTETLTNSVKRLSCIDKK”, the protein production entry is on record as “failed”.

“TPGRGSRVTDQGICPKHQEALKLFCEVDEEAICVVCRESRSHKQHSVVPL”: the protein production entry is on record as “not failed”.

On to “MNLRLTASILGKLLMLFSFSFILPLIAAHVFEEPYHPFLIPAALSLLVGAVLGYGIKTESEFDSLRHKESFAIVALIWLFMSIFGSIPYIIFGISPVDAFFESMSGFTTTGASVLTPEELPKSLLLWRSLTQWIGGMGIIVLFLAIFPNVAKRSTVLFQAEYPGVSLSKLKPRIRDTALSLYKVYLLLTIAEVALLYALGLSLFDAINHTFTTLSTGGYSTHSESIAFFKDVRVEAVVAFFAFLGGANFALIYFLLSGKPVIFRNTEFRAYVCFLALASVVIAAVNLDRYSIFESLRYSIFQAVSIMTTTGFTTADFDAWSDSAKLILVVLMFIGGSSGSTGGGIKVIRIYLLIKYAVHQILRAAEPRTVRAVKFEGRAIKKEILDDIAAFFVLYILIFAVSSILVSLSGYDIVTSISATAATLGNVGPGLGLAGAAENYASFPSLTKILLAVNMWIGRLEIFTVVSLFIPTFWRERW”, for which the protein production result is listed as “failed”.

With “MASSVILREDGFAPPKPSPTTHEKASTKGDRDGVECKNSDSEEECLVKKTVAAHTDYIYTQDLNLSP”, the protein production entry was “failed”.

Turning to “MTERSDYSIRIMSRQEIGMAVDWAAEEGWNPGLHDADCFHAADPEGFLTGLLGNEPVATISVVRYGTAFGFLGFYIVRPKYRGMGFGLKIWNAGLEQLKGRTIGLDGVVAQQENYAKSGFILAYRNIRVKGSGGGKIPAHEGIKPLVELPFETLLTYDSLFFPEERRTFLECWINQRESSSLGIIENNRLSGYGVIRTCRSGSKIGPLFADRADLAEELFCALKASAPEGSPLFLDIPEVNPEAVKLAQRHNMTVVFETSRMYQGNIPELPLGNIYGVTTFELG”, the protein production result is “failed”.

Turning to “MGSSHHHHHHENLYFQGTSVMITENQSVNAKGKYEKMNRLYDTNKLHQYYSGPSYELTNVSGQSQGYYDSNVLLFNQQNQKFQVFLLGKDENKYKEKTHGLDVFAVPELVDLDGRIFSVSGVTKKNVKSIFESLRTPNLLVKKIDDKDGFSIDEFFFIQKEEVSLKELDFKIRKLLIKKYKLYEGSADKGRIVINMKDENKYEIDLSDKLDFERMADVINSEQIKNIEVNLK”, the protein production result is recorded as “not failed”.

As for “MDFFTDQVKKKFSDKKPESSDPEPNHNKNKPGHTEPTTHKPGHGEPTTHKPVSNTDPTTHRPATNAELMASAKIVAEAAQAAARHESDKLDKAKVAGATADILDAASRYGKLDEKSGVGQYLEKAEQYLHKYETSHSHSSTGGTGSHGNVGGHGGGAGAPAAKKEDEKSGGGHGFGDYAKMAQGFMK”, the protein production result is on record as “failed”.

Values taken from a protein production outcome set (Wang et al. 2014).
